The data set is described as follows: yeast display, Sf9 membrane polyspecificity reagent, FACS + sequencing; frameworks hold sequencing errors. In a few lines: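 Genes from sorted yeast were amplified by colony PCR, read by MiSeq 2 × 250 sequencing and filtered on CDR length. These cells carried a synthetic nanobody library in Saccharomyces cerevisiae BJ5465 and were sorted by FACS into low and high (top ~1%) gates on anti-HA and streptavidin fluorescence. Polyreactivity is labelled according to the gate of origin.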
For “QVQLVESGGGLVKAGGSLRLSCAASGRTFSRYAMGWYRQAPGTEGEVVAAISYSGASTYYADSVKGRFTISRDNAKNTVYLQMNSLKPEDTAVSYCAARAPGPAPPQIRYGYWGQGTQVTVSS”, the “polyreactivity (PSR sort gate)” value was “high polyreactivity”. For the sequence “QVQLVESGGGLVKAGGSLRLSCAASGRTFVYNAMGWYRQAPGKERELVADIDGGGDRTYYADSVKGRFTISRDNAKNKVFLQMNSLKPEDTAVYYCARDPGDTYYYSYPEGDYWGQGTQVTVSS”, the “polyreactivity (PSR sort gate)” value is on record as “low polyreactivity”. The value for “QVQLVESGGGLVKAGGSLRLSCAASGRTFYVNAMGWYRQAPGKEREFVAAISRRGGSTYYADSVKGRFTISRDNAKNTVYFQLNSLKPEDTAVYYCATGYHRWSSWALDYWGQGTQVTVSS” was “high polyreactivity”; that for “QVQLVESGGGLVKAGGSLRLSCAASGSIFDGNAMGWYRQAPGKERELVADISRGGSTYYADSVKGRFTISRDNAKNTVYLLMNSLKPEDTAVYYCNVEFFFWPYEYGYWGQGTQVTVSS” was “low polyreactivity”; that for “QVQLVESGGGLVKAGGSLRLSCAASGSIFQSNAMGWYRQAPGKERELVAAIRTSSGGGTYADSVKGRFTISRDNAKNTVYLQINSLKPEDTAVYDCNARKNNGGKWGYDYWGQGTQVTVSS” was “high polyreactivity”. The value for “QVQLVESGGGLVKAGGSLRLSCAASGSIIGFYAMGWYILAPGKERELVAAITRGGGSTFYADSVKGRFTFSRDNAKNTVYLQMNSLKPEDTAVYYCAATVYRYHGPGYYYWGQGTQVTVSS” was “high polyreactivity”; that for “QVQLVESGGGLVKAGGSLRLSCAASGSISSGYVMGWYRQAPGKERELVASISYSGTSTYYADSVKGRFTISRDNAKNTVYLQMNSLKPEDTAVYYCAALSRRRFGYWGQGTQVTVSS” was “high polyreactivity”. The value for “QVQLVESGGGLVKAGGSLRLSCAASGSTFERYAMGCYRQAPGKEMELVAAINWSGGGTYYADSVKGRFTISRDNAKNTVYLQMNSLKPVDTAVYYCAADSGTVVFSLWWYEYYYWGQGTQVTVSS” was “low polyreactivity”; that for “QVQLVESGGGLVKAGGSLRLSCAASGSTFRYYVMGWYRQAPGNERELVAAISRGGRTYYADSVKGRFTISRDNAKYSVYLQMNSLKPEDTAVYYCAVDYIVQSGSRIAGDYWGQGTQVTVSS” was “high polyreactivity”; that for “QVQLVESGGGLVKAGGSLRLSCAASGSTFVGYAMGWYRQAPGKEREIVAAITRGGSTNYADSVKGRFTISRDNAKNTVYLQMNSLKPEDTAVYYCAARDRREGFNFDYWGQGTQVTVSS” was “low polyreactivity”. Consider “QVQLVESGGGLVKAGGSLRLSCAASGYNFIVYTMGWYRQAPGKERELVAAISSGGITDYADSVKGRFTISRDNAKNTDYLQMNSLNPEDTAVYYWGQGTQVTVSS”, for which the “polyreactivity (PSR sort gate)” value is recorded as “low polyreactivity”. “QVQLVESGGGLVKAGGSLRLSCAASGYTFLFNVMGWYRQAPGKEREIFATIRYSGGSTYYADSVKGRFTISRDNAKNTVYLQMNSLKPEDTAVYYCAARYAWYTSYCSRKYDYWGQGTQVTVSS”: the “polyreactivity (PSR sort gate)” value was “high polyreactivity”.

Regarding “QVQLVESGGGLVKAGGSLRLSCAASGYTFRSYAMGWYRQAPGKEREKVARITFRGTSTYADSVKGRFTISRDNAKNTVYLQMNSLKPEESAVYYCNTSRAPWGNGYKRYDYWGQGTQVTVSS”, the “polyreactivity (PSR sort gate)” value was “low polyreactivity”. Then “QVQLVESGGGLVKAGGSLRLSCDASGSILWENAMGWYRQAPGKERELVATISVSGGGTYYADSVKGRFTISRDNAKNTVYLQMNSLKPEDTAVYYCNARYGNESQGWEDYWGKGTQVTVSS”, with “low polyreactivity”; and “QVQLVESGGGLVKAGGSLRLSCSASGSTFRSNAMGWYRQAPGKERELVAGISSGGGTYYADSVKGRFTISRDNAKNTVYLQMNSLKPEDTAVYYCAKVVYFGWSVQYYYWGQGTQVTVSS”, with “low polyreactivity”. The value for “QVQLVESGGGLVKAGGSLRLTCAASGSIFRYYAMGWYRQAPGKERELVAAISGSGGSTYYADSVKGRFTISRDNAKNTVYLQMNSLKPEDTAVYYCARVRGCYDKMYYWGQGTQVTVSS” was “high polyreactivity”.

Take “QVQLVESGGGLVKAGGSLSLICAASGFTFGVYAMGRYRQAPGKERELVAAIRRTGGSTYYADSVKGRFTISRDNAKNTVYLQMNSLKPEDTAVYYCAAHAISYQSRYRYRYGSVDYWGQGTQVTVSS”: the “polyreactivity (PSR sort gate)” value is on record as “high polyreactivity”.

Consider “QVQLVESGGGLVKAGGSLSLSCAASGFTVYRYTMGWYRPAPGKEREVVARITYSGGSTYYADSVKVRFTISRDNAKNTVYLQLYCLKPVDSAVYYCNARSDFYSRYGYKYDYWGQGTQVTVSS”, for which the “polyreactivity (PSR sort gate)” value is on record as “high polyreactivity”. The value for “QVQLVESGGGLVLAGGSLRLICAGSGRIFYTNTMGWYRQAPWKGRELVAAIRSGTRTYYADSVKGRFTISRDNAKNTFYLLMNILKPEATAVYYCAAYYSYYGGDYWGQGTQVTVSS” was “low polyreactivity”.

For “QVQLVESGGGLVLAGGSLRLSCAASGRILGSYAMGWYRQAPGKERELVAGISWRGGRTSYADSVKGRFTISRDNAKNPVYLQMNSLKPEDTAVYYCATRSSSRKYGYWGQGTQVTVSS”, the “polyreactivity (PSR sort gate)” value is “high polyreactivity”. “QVQLVESGGGLVLAGGSLRLSCAASGRIYVFYAMGWYRQAPGKEREFVATISYSGDTTYYADSVKGRFTISRDNAKNTVYLQMNSLTPEDTAVYYCAADQVPSYYYVPLGYDSWGQGTQVTVSS”: the “polyreactivity (PSR sort gate)” value is “low polyreactivity”. In the case of “QVQLVESGGGLVLAGGSLRLSCAASGRTFELNALGWYRQAPGKERELVAAISWSGGSTYYADSVKGRFTISRDNAKNTVYLQMNSLKPEDTSVYYCAAQYQQGPFVKYYYWGQGPQVTVSS”, the “polyreactivity (PSR sort gate)” value is “high polyreactivity”.

On to “QVQLVESGGGLVLAGGSLRLSCAASGSTFGDYAMGWYRQAPGNERELVAAISARGASTYYADSVKGRFTISRDNAKNTVYLQMNSLKPEDTAVYYCAARYVSSGRRFDYWGQGTQVTVSS”, for which the “polyreactivity (PSR sort gate)” value was “high polyreactivity”. The value for “QVQLVESGGGLVLAGGSLRLSCAASGSTFTIYALGWYRQAPVKQRELVAAITSGGSTYADSVKRRFTISRDNAKNTVYLEMNSLKPEETAVDYCATVTFSHAQRTWYDYWGQGSQVTVSS” was “high polyreactivity”; that for “QVQLVESGGGLVLAGGSLRLSCAASGTIFGYYAMGWYRQAPGKDRELVAAITSDGDTYYADSVKGRFTISRDNAKNTVYLQMNSLKPEDTAVYYCNATYGGPYYIQYDYWGQGTQVTVSS” was “low polyreactivity”. For the sequence “QVQLVESGGGLVLAGGSLSLSCAASGSIFNWYAMGWYRKAHGKERELVAAISWRGGSTYYADSVKGRFTISRDNAINSVYFQMNSLKPEDTAVYYCASDGGGDHMDYWGQGTQVSVSS”, the “polyreactivity (PSR sort gate)” value was “high polyreactivity”. Then “QVQLVESGGGLVNAGVSLLLSCAASGYIFVQYAMGWNRQAHVKERELVAAISKSGSSTYYADSVKGRFTISRDNAKNTVFLLINSLKPADSAVYYCAVVYTYVSGFTYGYWGQGTQVIVSS”, with “low polyreactivity”; and “QVQLVESGGGLVPAGASLRLSCAASGSTSYVYAMGWYRKAPGKERELVAAISGSGGRTYYADSVKGRFTISRDNAKNTVYLQMNSLKPEDTAVYYCNAMPRPSYPFDYWGQGTQVTVSS”, with “high polyreactivity”. Take “QVQLVESGGGLVPAGGSLRLSCAASGFIFSRYDMGCYRQAPGKERELVAAIDWSGDSTYYADSVKGRFTISRDNAKNTVYFQMNSLKPEDTAVYYCAAGQDGDSDWGQGTQVTVSS”: the “polyreactivity (PSR sort gate)” value was “low polyreactivity”. “QVQLVESGGGLVPAGGSLRLSCAASGRIFVVYSMGWYRQAPGKERELVASISGGSTNYADSVKGRFTISRDNAKNTVYLQMNSLKPEDTAVYFCGMEYWGQGTQVTVSS”: the “polyreactivity (PSR sort gate)” value is given as “low polyreactivity”.

Turning to “QVQLVESGGGLVPAGGSLRLSCAASGRTFFKNAMGWYRQAPGKERELVARISWNGGDSTYYADSVKGRFTISRDNAKNTVYLQMNSLKPEDTAVYSCAADTSYRPGGSRHGYGYWGQGTQVTVSS”, the “polyreactivity (PSR sort gate)” value was “low polyreactivity”. Then “QVQLVESGGGLVPAGGSLRLSCAASGRTFRYYGMGWYRQAPGTERELLAAISWRGGSTNYADSVKGRFTISRDNAKNTVYLQMNSLKREDTAVYYCAVGTVYLTYRGYEYWGQGTQVTVSS”, with “high polyreactivity”; and “QVQLVESGGGLVPAGGSLRLSCAASGRTFYSYGMGWYRQAPGKERELVASISSSTGSTYYADSVKGRFTISRDNAKNTVYLQMNSLKPEDTAVYYCAKRYSWTRRYDYWGQGTQVTVSS”, with “high polyreactivity”. Take “QVQLVESGGGLVPAGGSLRLSCAASGRTVRRNAMGWYRHAPGKERELVADISNGDSTKYADSVKGRFTISRDNAKNTVYLQMNSVNPEDTAVYYCATEVSWHWYQQSVTRMDYWGQGTQVTVSS”: the “polyreactivity (PSR sort gate)” value is recorded as “low polyreactivity”. For “QVQLVESGGGLVPAGGSLRLSCAASGSIFPVYAMGWYRQAPGKERELVASISTGGSTYYADSVKGRFTISRDNAKNTVYLQMNSLKPEDNAVYYCDATGWAYGYGYWGQGTQVTVSS”, the “polyreactivity (PSR sort gate)” value is given as “low polyreactivity”. Then “QVQLVESGGGLVPAGGSLRLSCAASGSTFAKYAMGWYRQAPGKERELVASIRLSGGSTYYADSVKGRFTISRDHAQNTVYLQMNSLKPEDTAVYYCNKQFATFYYGFHYYYWGQGTQVTVSS”, with “low polyreactivity”; and “QVQLVESGGGLVPAGGSLRLSCAASGSTFEVNAMGWYRQAPGKERELVADITSGGSTNYADSVKGRFTISRDNAKNTVFLQMNSLKPEDTAVYFCARDDWFGFIRVQEMDYWGQGTQVTVSS”, with “low polyreactivity”. In the case of “QVQLVESGGGLVPAGGSLRLSCAASGSTFNGYPMGWYRQAPGKEREFVATITFSDGSTYYADSVKGRFTISRDNAKNTVYLQMNSLKPEDTAVYYCNVDSRIGYDYWGQGTQVTVSS”, the “polyreactivity (PSR sort gate)” value is given as “low polyreactivity”.

On to “QVQLVESGGGLVPAGGSLRLSCAASGSTFSDYAMGWYRQAPGKERELVASIDSGDSTNYADSVKGRFTISRDNAKNTVYLQMTSLKPEDTAVYFCAADYQNTGARYGYYYWGQGTQVTVSS”, for which the “polyreactivity (PSR sort gate)” value is “low polyreactivity”. The value for “QVQLVESGGGLVPAGGSLRLSCAASGSTFVSKAMGWYRQAPGKERELLAAISTSGGSTYNADSVKGRVTISGDNAKNTVYLQMNSLKPEDTAVYYCAKLLAGGFRIWQDYDYWGQGTQVTVSS” was “low polyreactivity”; that for “QVQLVESGGGLVPAGGSLRLSCDASGRTFWFYAMGWYRQAQGKERELVASITSGGGTNYADSVKGRFTISRDNAKNTVYLQMNSLKPEDTAVYYCAADRAYGVLGNEGGYWGQGTQVTVSS” was “high polyreactivity”.

The values are drawn from the nanobody polyreactivity screen of Harvey et al. (2022).
